B1: HDV Ribozyme (parent)
chain: GGCCGGCAUGGUCCCAGCCUCCUCGCUGGCGCCGGCUGGGCAACAUUCCGAGGGGACCGUCCCCUCGGUAAUGGCGAAUGGGACCCA

Variants of: B1
Experiment: self-cleavage, relative activity (ratio to wild type); higher = more cleavage; co-transcriptional

| Variant | self-cleavage |
| --- | --- |
| GGCCGGCAUGGUCCCAGCUUCCUCGCUGGCGCCGGCUGGGCAACAUUCCGAGGGGACCGUCCCCUCGGUGAUGGCGAAUGGGACCCA [C19U A70G] | 0.141 |
| GGCCGGCAUGGUCCCAGCCUCCUCGCUGUCGCCGGCUGGGCAACAUUCCGAGGGGACCGUCCCCUUGGUAAUGGCGAAUGGGACCCA [G29U C66U] | 0.147 |
| GGCCGGCAUGGUCCCAGCCUCCUCGCUGGCGCCGGCUGCGCAACAUUCCGAGGGGACCGUCCCCUCGGGAAUGGCGAAUGGGACCCA [G39C U69G] | 0.133 |
| GGCCGGCAUGGUCCCAGCCUCCUCGCUGGCGCCGGCUGGGCAACAUUCCGAGGGGACCGUCCCCUCGGUGAUGGCGAAGGGGACCCA [A70G U79G] | 0.582 |
| GGCCGGCAUGGUCCAAGCCUCCUCGCUGGCGCCGGCUGGGCAACAUUCCGAGGGGACCGUCCCCGCGGUAAUGGCGAAUGGGACCCA [C15A U65G] | 0.653 |
| GGCCGGCAUGGUCCCGGCCUCCUCGCUGGCGCCGGCUGGGCAACAUUCCGAGGGGACCGUCCCCUCGGUAAUGGCCAAUGGGACCCA [A16G G76C] | 1.12 |
| GGCCGACAUGGUCCCACCCUCCUCGCUGGCGCCGGCUGGGCAACAUUCCGAGGGGACCGUCCCCUCGGUAAUGGCGAAUGGGACCCA [G6A G17C] | 0.0923 |
| GGCCGGCAUGGUCCAAGCCUCCUCGCUGGCGCCGGCUGGGCAACAUUCCGAGGGGAGCGUCCCCUCGGUAAUGGCGAAUGGGACCCA [C15A C57G] | 0.623 |
| GGCCGGCAAGGUCCCAGCCUCCUCGCUGGCGCCGGCUGGGCAACAUUCCGAGGGGACCGUCCCCUCGGGAAUGGCGAAUGGGACCCA [U9A U69G] | 1.06 |
| GGCCGGCAUGGUCCCAGCCUCCUCGCUGGCGCCGGCUGGGCAACAUUCCGAGGAGACCGGCCCCUCGGUAAUGGCGAAUGGGACCCA [G54A U60G] | 1.03 |
| GGCCGGCAUGGUCCCAGCCUCCUCGCUGGCGUCGGCUGGGCAACAUUCCGAGGGGACCGUCCCGUCGGUAAUGGCGAAUGGGACCCA [C32U C64G] | 0.875 |
| GGCCGGCAUGGUCCCAGACACCUCGCUGGCGCCGGCUGGGCAACAUUCCGAGGGGACCGUCCCCUCGGUAAUGGCGAAUGGGACCCA [C18A U20A] | 0.0875 |
| GGCCGGCAUGGUCCCAGCCUCCUCGCUGGCGCCGUCUGGGCAACAUUCCGAGGGGACCGUCCCCUCGGAAAUGGCGAAUGGGACCCA [G35U U69A] | 0.212 |
| GGCCGGCAUGGUCCCAGCCUCCUCGCUGGCGCCGGCUGGGCAACAUUCCGAGGGGUCCGUCCCCUCGGUAAUUGCGAAUGGGACCCA [A56U G73U] | 0.415 |
| GGCCGGCAUGGUCCCAGCCUCCUCGCUGGCGCCGGCUGGGCGACAUUCCGAGGGGACCGUCCCCCCGGUAAUGGCGAAUGGGACCCA [A42G U65C] | 0.643 |
| GGCCGGCAGGGUCCCAGCCUCCUCGCUGGCGCCGGCUGGGCAACAUACCGAGGGGACCGUCCCCUCGGUAAUGGCGAAUGGGACCCA [U9G U47A] | 1.16 |

| Variant | self-cleavage |
| --- | --- |
| GGCCGGCAUGGACCCAGCCUCCUCGCUGGCGCCGGCUGGGCAACAUUCCGAGGGGACCGUCCCCUCGGUAAUGGCGAAUGGGCCCCA [U12A A83C] | 0.35 |
| GGCCGGCCUGGUCCCAGCCUCCUCGCUGGCCCCGGCUGGGCAACAUUCCGAGGGGACCGUCCCCUCGGUAAUGGCGAAUGGGACCCA [A8C G31C] | 0.119 |
| GGCCGGCAUGGUCCCAGCCUCCUCGCUGGCGCCGGCUGCGCAACAUUCCGAGGGGACCGUCCCCUCGGUAAUGGCGAAAGGGACCCA [G39C U79A] | 0 |
| GGCCGGCCUGGUCCCAGCCUCCUCUCUGGCGCCGGCUGGGCAACAUUCCGAGGGGACCGUCCCCUCGGUAAUGGCGAAUGGGACCCA [A8C G25U] | 0.138 |
| GGCCGGCAUGGUCCCAGUCUCCUCGCUGGCGCCGGCUGGGCAACAUUCCGAGGGGACCGUCCCCUCGGUGAUGGCGAAUGGGACCCA [C18U A70G] | 0.752 |
| GGCCGGCAUGGUCCCAGCCUCCUCGCUGGCGCCGGCUGGGCACCAUUCCAAGGGGACCGUCCCCUCGGUAAUGGCGAAUGGGACCCA [A43C G50A] | 0.469 |
| GGCCGGCAUGGUCCCAGCCUCCUCGCUGGCGCCGGCUGGGCAACAUACCGAGGGGACCGUCCCCUCGGUAAUGGCGAAUGGGACGCA [U47A C85G] | 0.665 |
| GGCUGGCAUGGUCCCAGCCUCCCCGCUGGCGCCGGCUGGGCAACAUUCCGAGGGGACCGUCCCCUCGGUAAUGGCGAAUGGGACCCA [C4U U23C] | 0.571 |
| GGCCGGAAUGGUCCCAGCCUCCUCGCUGGCGCCGGCUGGGCAACAUUCCGAGGGGACCGUCCCCUCGGUAAUGGCGAAAGGGACCCA [C7A U79A] | 0.249 |
| GGCCGGCAUGGUCCCAGCCUCCUCGCUGGCGCCGGCUGGGCAACAUACCGAGGGGACCGUCCCCUCGGUAAUGGCGGAUGGGACCCA [U47A A77G] | 0.831 |
| GGCCGGCAUGGUCCCAGCCUCCUCGCUGGCGCCGGCUGGGCAACAUUCCGAGGGGACCGUCCGCUCGGUAAUGGUGAAUGGGACCCA [C63G C75U] | 0.154 |
| GGCCGGCAUGGUCCCAGCCUCCUCGCUGGCGCCGGCUGGACAUCAUUCCGAGGGGACCGUCCCCUCGGUAAUGGCGAAUGGGACCCA [G40A A43U] | 0.446 |
| GGCCGGCAUGGUCCCAGCCUCCUCGCUGGCGCCGGCUGGGCCACAUUCCGAGGGGACCGUCCCCACGGUAAUGGCGAAUGGGACCCA [A42C U65A] | 0.155 |
| GUCCGGCAUGGUCCCAGCCUCCUCGCUGGCGCCGGCUGGGCAACAUUCCGAGGGGACCGUCCCAUCGGUAAUGGCGAAUGGGACCCA [G2U C64A] | 0.0339 |
| GGCCGGCAUGGUCCCAGCCUCCUCGCUGGCGCCGGCUGGGCAACAGUCCGAGGGGACCGUCCCCUCGAUAAUGGCGAAUGGGACCCA [U46G G68A] | 0.608 |
| GGCCGGCAUGGUCCCAGCCUCCUCGCUGGCGCCGGCUGGGCAACAAUCCGAGGGGACCGUCCCCUCGGUAUUGGCGAAUGGGACCCA [U46A A71U] | 0.95 |
